# Results as given in US20040121411.
# How the values were obtained:
# [1] = test system: radiolabeled βAPP-C100 polypeptide mimic
# [2] = test system: radiolabeled βAPP-C83 polypeptide mimic
substance,measurement,setting,value
solubilized gamma-secretase complex (gamma-secretase associated with PS1) from HeLa cell membranes,"cleavage of 35S-labeled substrate, SDS-PAGE and phosphorimager",[1],"The radiolabeled βAPP-C100 substrate was cleaved by the gamma-secretase complexes present in the solubilized protein and protein complex preparation (FIGS. 6 and 7) and the affinity enriched protein preparation (FIG. 8), to yield a 6 kDa cleavage product"
same,"cleavage of 35S-labeled substrate, SDS-PAGE and phosphorimager",[2],"The radiolabeled βAPP-C83 substrate was also cleaved by the gamma-secretase complexes present in the solubilized protein and protein complex preparation (FIG. 7) and the affinity enriched protein preparation, to yield a 6 kDa cleavage product"
